Here are results for 125 sequences from the supplement of paper PMC9112550, “Optimization of the antimicrobial peptide Bac7 by deep mutational scanning” (BMC Biology, 2022).

The test system of the series is Escherichia coli TOP10. The series can be described thus: shrunken log2 fold change of peptide-encoding DNA abundance (4.5 h post-induction vs induction); higher = less antimicrobial activity (less host growth inhibition). The note with it: time post-induction: 4.5 h; library: site-saturation at positions 5, 18, 19, 20.
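Further: peptides expressed intracellularly from a pBAD plasmid library in pooled LB shake-flask culture, induced with 0.3% L-arabinose, DNA abundance read by NGS, three biological replicates, DESeq2 with apeglm shrinkage.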

Turning to RRIRQRPPRLPRPRPRPPEGPRP, the “shrunken log2 fold change” value came out at 0.228.

Take RRIRIRPPRLPRPRPRPDKQPRP: the “shrunken log2 fold change” value came out at 0.0185.

In the case of RRIRNRPPRLPRPRPRPCENPRP, the “shrunken log2 fold change” value is -0.0018.

As to RRIRERPPRLPRPRPRPIRLPRP, the “shrunken log2 fold change” value is -0.0614.

Take RRIRIRPPRLPRPRPRPHDMPRP: the “shrunken log2 fold change” value was -0.226.

Take RRIRPRPPRLPRPRPRPPGLPRP: the “shrunken log2 fold change” value turned out to be 0.268.

Turning to RRIRRRPPRLPRPRPRPIFEPRP, the “shrunken log2 fold change” value is 0.0525.

Take RRIRERPPRLPRPRPRPVCPPRP: the “shrunken log2 fold change” value was -0.162.

In the case of RRIRHRPPRLPRPRPRPRKPPRP, the “shrunken log2 fold change” value turned out to be 0.321.

As to RRIRWRPPRLPRPRPRPIRQPRP, the “shrunken log2 fold change” value was -0.0309.

Turning to RRIRLRPPRLPRPRPRPTCTPRP, the “shrunken log2 fold change” value is -0.0583.

As for RRIRFRPPRLPRPRPRPCCTPRP, the “shrunken log2 fold change” value is -0.337.

With RRIRMRPPRLPRPRPRPVLEPRP, the “shrunken log2 fold change” value stood at 0.426.

As for RRIRFRPPRLPRPRPRPTLEPRP, the “shrunken log2 fold change” value was 0.197.

As for RRIRARPPRLPRPRPRPACLPRP, the “shrunken log2 fold change” value was 0.347.

For RRIRYRPPRLPRPRPRPHDVPRP, the “shrunken log2 fold change” value is -0.379.

For RRIRYRPPRLPRPRPRPLTWPRP, the “shrunken log2 fold change” value is -0.333.

For RRIRMRPPRLPRPRPRPLMPPRP, the “shrunken log2 fold change” value was found to be 0.13.

As to RRIRDRPPRLPRPRPRPQPEPRP, the “shrunken log2 fold change” value turned out to be 0.106.

In the case of RRIRQRPPRLPRPRPRPSGVPRP, the “shrunken log2 fold change” value was -0.141.

On to RRIRNRPPRLPRPRPRPDGRPRP, for which the “shrunken log2 fold change” value is -0.109.

In the case of RRIRKRPPRLPRPRPRPVHMPRP, the “shrunken log2 fold change” value was -0.0183.

As for RRIRERPPRLPRPRPRPTISPRP, the “shrunken log2 fold change” value was -0.163.

On to RRIRMRPPRLPRPRPRPPAMPRP, for which the “shrunken log2 fold change” value worked out at 1.02.

Turning to RRIRQRPPRLPRPRPRPMALPRP, the “shrunken log2 fold change” value turned out to be 0.00414.

With RRIRVRPPRLPRPRPRPEKVPRP, the “shrunken log2 fold change” value came to 0.13.

For the sequence RRIRMRPPRLPRPRPRPHAGPRP, the “shrunken log2 fold change” value was 0.222.

For RRIRVRPPRLPRPRPRPEFNPRP, the “shrunken log2 fold change” value is 0.203.

With RRIRMRPPRLPRPRPRPKQHPRP, the “shrunken log2 fold change” value was found to be 0.675.

In the case of RRIRERPPRLPRPRPRPGCFPRP, the “shrunken log2 fold change” value was found to be 0.199.

Consider RRIRHRPPRLPRPRPRPNKYPRP, for which the “shrunken log2 fold change” value is -0.782.

Consider RRIRSRPPRLPRPRPRPGGFPRP, for which the “shrunken log2 fold change” value turned out to be 0.245.

Take RRIRRRPPRLPRPRPRPMTHPRP: the “shrunken log2 fold change” value was -0.17.

Take RRIRNRPPRLPRPRPRPIWVPRP: the “shrunken log2 fold change” value is -0.0659.

Turning to RRIRFRPPRLPRPRPRPFELPRP, the “shrunken log2 fold change” value is -0.0457.

As to RRIRTRPPRLPRPRPRPMIHPRP, the “shrunken log2 fold change” value is -0.609.

With RRIRYRPPRLPRPRPRPTMLPRP, the “shrunken log2 fold change” value is -0.54.

As for RRIRGRPPRLPRPRPRPFWIPRP, the “shrunken log2 fold change” value was -0.432.

As to RRIRIRPPRLPRPRPRPRLMPRP, the “shrunken log2 fold change” value is -0.0272.

In the case of RRIRSRPPRLPRPRPRPAEGPRP, the “shrunken log2 fold change” value came to 0.29.

On to RRIRTRPPRLPRPRPRPEVWPRP, for which the “shrunken log2 fold change” value stood at 0.546.

In the case of RRIRNRPPRLPRPRPRPMRRPRP, the “shrunken log2 fold change” value was -0.0657.

As for RRIRWRPPRLPRPRPRPIAIPRP, the “shrunken log2 fold change” value was -0.347.

Regarding RRIRRRPPRLPRPRPRPTLFPRP, the “shrunken log2 fold change” value was found to be 0.826.

For RRIRTRPPRLPRPRPRPRYHPRP, the “shrunken log2 fold change” value is -0.573.

For RRIRRRPPRLPRPRPRPIKPPRP, the “shrunken log2 fold change” value is 0.0148.

Turning to RRIRARPPRLPRPRPRPSWTPRP, the “shrunken log2 fold change” value was -0.392.

As to RRIRHRPPRLPRPRPRPNVSPRP, the “shrunken log2 fold change” value is -0.0959.

With RRIRGRPPRLPRPRPRPYGGPRP, the “shrunken log2 fold change” value was -0.26.

Turning to RRIRSRPPRLPRPRPRPERFPRP, the “shrunken log2 fold change” value is 0.196.

Consider RRIRPRPPRLPRPRPRPISHPRP, for which the “shrunken log2 fold change” value is -0.118.

As for RRIRYRPPRLPRPRPRPSQAPRP, the “shrunken log2 fold change” value is -0.0185.

Consider RRIRHRPPRLPRPRPRPANDPRP, for which the “shrunken log2 fold change” value was -0.0802.

As to RRIRNRPPRLPRPRPRPDHDPRP, the “shrunken log2 fold change” value was -0.224.

For RRIRLRPPRLPRPRPRPLGGPRP, the “shrunken log2 fold change” value came out at 0.157.

As to RRIRWRPPRLPRPRPRPMPCPRP, the “shrunken log2 fold change” value came out at 0.113.

For RRIRVRPPRLPRPRPRPQQPPRP, the “shrunken log2 fold change” value stood at 0.124.

For the sequence RRIRARPPRLPRPRPRPVAVPRP, the “shrunken log2 fold change” value is 0.445.

As to RRIRLRPPRLPRPRPRPFLKPRP, the “shrunken log2 fold change” value is -0.0488.

With RRIRCRPPRLPRPRPRPSDKPRP, the “shrunken log2 fold change” value was -0.207.

Take RRIRPRPPRLPRPRPRPDLCPRP: the “shrunken log2 fold change” value was -0.0739.

As for RRIRIRPPRLPRPRPRPKARPRP, the “shrunken log2 fold change” value is -0.0685.

In the case of RRIRFRPPRLPRPRPRPAYQPRP, the “shrunken log2 fold change” value was -0.135.

With RRIRQRPPRLPRPRPRPDDGPRP, the “shrunken log2 fold change” value was -0.171.

As to RRIRGRPPRLPRPRPRPRTDPRP, the “shrunken log2 fold change” value worked out at 1.06.

In the case of RRIRHRPPRLPRPRPRPLKKPRP, the “shrunken log2 fold change” value is -0.157.

In the case of RRIRSRPPRLPRPRPRPLSGPRP, the “shrunken log2 fold change” value was -0.0801.

Consider RRIRDRPPRLPRPRPRPRKLPRP, for which the “shrunken log2 fold change” value came to 0.0892.

On to RRIRGRPPRLPRPRPRPKCHPRP, for which the “shrunken log2 fold change” value came out at 0.78.

With RRIRGRPPRLPRPRPRPPPVPRP, the “shrunken log2 fold change” value was 1.25.

For RRIRTRPPRLPRPRPRPAGLPRP, the “shrunken log2 fold change” value was 0.0286.

As to RRIRERPPRLPRPRPRPYCRPRP, the “shrunken log2 fold change” value was -0.394.

Consider RRIRARPPRLPRPRPRPIRNPRP, for which the “shrunken log2 fold change” value is -0.179.

Turning to RRIRYRPPRLPRPRPRPCLMPRP, the “shrunken log2 fold change” value is -0.225.

As to RRIRARPPRLPRPRPRPSVEPRP, the “shrunken log2 fold change” value is 0.49.

In the case of RRIRDRPPRLPRPRPRPHQDPRP, the “shrunken log2 fold change” value was 0.00101.

Regarding RRIRARPPRLPRPRPRPTNLPRP, the “shrunken log2 fold change” value came out at 0.0653.

In the case of RRIRTRPPRLPRPRPRPISPPRP, the “shrunken log2 fold change” value was -0.357.

RRIRYRPPRLPRPRPRPFPHPRP: the “shrunken log2 fold change” value was -0.137.

Take RRIRLRPPRLPRPRPRPCYPPRP: the “shrunken log2 fold change” value was -0.661.

Consider RRIRPRPPRLPRPRPRPAMAPRP, for which the “shrunken log2 fold change” value is 0.388.

Take RRIRYRPPRLPRPRPRPRAWPRP: the “shrunken log2 fold change” value was -0.214.

In the case of RRIRNRPPRLPRPRPRPFQHPRP, the “shrunken log2 fold change” value is -0.00968.

Regarding RRIRMRPPRLPRPRPRPYMCPRP, the “shrunken log2 fold change” value came to 0.00451.

Regarding RRIRARPPRLPRPRPRPCICPRP, the “shrunken log2 fold change” value is -0.0352.

With RRIRERPPRLPRPRPRPAHHPRP, the “shrunken log2 fold change” value was -0.338.

On to RRIRARPPRLPRPRPRPDDIPRP, for which the “shrunken log2 fold change” value worked out at 0.0386.

For RRIRHRPPRLPRPRPRPKGYPRP, the “shrunken log2 fold change” value was -0.0529.

Take RRIRIRPPRLPRPRPRPVYIPRP: the “shrunken log2 fold change” value is -0.154.

With RRIRHRPPRLPRPRPRPMCCPRP, the “shrunken log2 fold change” value was 0.101.

Take RRIRFRPPRLPRPRPRPQVIPRP: the “shrunken log2 fold change” value was -0.364.

Take RRIRGRPPRLPRPRPRPCWTPRP: the “shrunken log2 fold change” value worked out at 0.28.

RRIRFRPPRLPRPRPRPQVNPRP: the “shrunken log2 fold change” value was -0.0623.

RRIRIRPPRLPRPRPRPINWPRP: the “shrunken log2 fold change” value is -0.402.

Turning to RRIRFRPPRLPRPRPRPILCPRP, the “shrunken log2 fold change” value is -0.192.

Consider RRIRTRPPRLPRPRPRPNWMPRP, for which the “shrunken log2 fold change” value amounted to 0.286.

As to RRIRMRPPRLPRPRPRPADRPRP, the “shrunken log2 fold change” value was found to be 0.707.

Take RRIRHRPPRLPRPRPRPNRFPRP: the “shrunken log2 fold change” value is -0.00088.

On to RRIRERPPRLPRPRPRPSEPPRP, for which the “shrunken log2 fold change” value is 0.227.

Consider RRIRRRPPRLPRPRPRPRRVPRP, for which the “shrunken log2 fold change” value was determined as 0.347.

As for RRIRFRPPRLPRPRPRPKSTPRP, the “shrunken log2 fold change” value is -0.3.

For the sequence RRIRYRPPRLPRPRPRPQNKPRP, the “shrunken log2 fold change” value is -0.969.

RRIRARPPRLPRPRPRPWSGPRP: the “shrunken log2 fold change” value is -0.0707.

Regarding RRIRERPPRLPRPRPRPYYFPRP, the “shrunken log2 fold change” value is -1.04.

RRIRMRPPRLPRPRPRPFEFPRP: the “shrunken log2 fold change” value was -0.044.

In the case of RRIRQRPPRLPRPRPRPPQNPRP, the “shrunken log2 fold change” value came to 0.663.

Regarding RRIRCRPPRLPRPRPRPMRMPRP, the “shrunken log2 fold change” value stood at 0.22.

For RRIRKRPPRLPRPRPRPCQVPRP, the “shrunken log2 fold change” value is -0.00846.

RRIRVRPPRLPRPRPRPDMCPRP: the “shrunken log2 fold change” value turned out to be 0.0884.

Regarding RRIRLRPPRLPRPRPRPGFCPRP, the “shrunken log2 fold change” value was 0.272.

As to RRIRNRPPRLPRPRPRPPPVPRP, the “shrunken log2 fold change” value was 0.933.

Take RRIRGRPPRLPRPRPRPGIYPRP: the “shrunken log2 fold change” value came out at 0.641.

As for RRIRERPPRLPRPRPRPGVTPRP, the “shrunken log2 fold change” value was determined as 0.00546.

For RRIRMRPPRLPRPRPRPMPQPRP, the “shrunken log2 fold change” value came to 4.29.

Turning to RRIRPRPPRLPRPRPRPKCVPRP, the “shrunken log2 fold change” value was 0.0688.

Take RRIRFRPPRLPRPRPRPIWDPRP: the “shrunken log2 fold change” value was -0.319.

For RRIRPRPPRLPRPRPRPFHHPRP, the “shrunken log2 fold change” value is -0.763.

As for RRIRHRPPRLPRPRPRPGRNPRP, the “shrunken log2 fold change” value is -0.31.

In the case of RRIRMRPPRLPRPRPRPRYGPRP, the “shrunken log2 fold change” value worked out at 0.0305.

On to RRIRWRPPRLPRPRPRPTVSPRP, for which the “shrunken log2 fold change” value was -0.156.

Turning to RRIRTRPPRLPRPRPRPYRNPRP, the “shrunken log2 fold change” value was -0.21.

Take RRIRTRPPRLPRPRPRPHEVPRP: the “shrunken log2 fold change” value is -0.00804.

For the sequence RRIRQRPPRLPRPRPRPHDEPRP, the “shrunken log2 fold change” value was -0.158.

Regarding RRIRPRPPRLPRPRPRPHFHPRP, the “shrunken log2 fold change” value is -0.191.

As to RRIRARPPRLPRPRPRPEVFPRP, the “shrunken log2 fold change” value is 0.401.
